Numbered stars: 1 amine (or outer) side, 2 acyl side, 3 side chain; on linkers, the order of the positions; unused ones are H or OH. Bridge positions count the residues as written; N and C are the ends. Side chains are listed from the residue outwards. Ends that are not written are not given here. * marks the point of attachment. C20 diacid = O=C(O)CCCCCCCCCCCCCCCCCCC(=O)*; γGlu = O=C(O)[C@H](CCC(=O)[*:2])N[*:1]; AEEA = NCCOCCOCC(=O)O
T1: human calcitonin receptor (human, UniProt P30988 25-474)
T1 construct: whole, on cells; Used as membranes prepared from the transfected cells (Assay VII); also called hCTR; hCT
T1 sequence (looked up): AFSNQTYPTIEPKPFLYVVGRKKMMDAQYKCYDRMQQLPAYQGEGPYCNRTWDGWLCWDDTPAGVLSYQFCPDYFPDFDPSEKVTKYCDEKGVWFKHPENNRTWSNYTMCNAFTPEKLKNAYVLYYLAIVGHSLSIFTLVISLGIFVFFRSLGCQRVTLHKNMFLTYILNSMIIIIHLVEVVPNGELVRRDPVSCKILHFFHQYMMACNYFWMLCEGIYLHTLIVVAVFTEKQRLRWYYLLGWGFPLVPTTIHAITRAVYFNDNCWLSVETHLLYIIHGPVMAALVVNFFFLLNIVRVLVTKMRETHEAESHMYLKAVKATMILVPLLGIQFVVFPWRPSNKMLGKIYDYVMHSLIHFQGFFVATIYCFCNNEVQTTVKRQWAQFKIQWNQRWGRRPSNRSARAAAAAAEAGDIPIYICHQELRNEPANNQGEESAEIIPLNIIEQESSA

T2: rat calcitonin receptor (rat, UniProt P32214 25-516)
T2 construct: whole, on cells; Used as membranes prepared from the transfected cells; also called rCTR; rat calcitonin (a) receptor
T2 sequence (looked up): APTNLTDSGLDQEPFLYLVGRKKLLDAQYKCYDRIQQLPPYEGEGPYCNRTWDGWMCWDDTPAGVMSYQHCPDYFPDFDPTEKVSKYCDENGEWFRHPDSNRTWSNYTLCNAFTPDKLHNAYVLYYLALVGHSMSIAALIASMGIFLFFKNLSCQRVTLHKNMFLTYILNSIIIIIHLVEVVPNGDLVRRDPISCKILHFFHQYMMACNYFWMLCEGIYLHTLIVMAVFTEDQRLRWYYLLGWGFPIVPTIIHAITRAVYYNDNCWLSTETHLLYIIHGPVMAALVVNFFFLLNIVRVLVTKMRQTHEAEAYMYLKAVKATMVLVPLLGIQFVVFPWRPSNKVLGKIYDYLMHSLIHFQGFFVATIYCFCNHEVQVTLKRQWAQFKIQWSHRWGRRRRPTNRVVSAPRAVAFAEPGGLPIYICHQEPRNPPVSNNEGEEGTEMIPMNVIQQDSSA

T3: rat amylin receptor (rat calcitonin receptor + rat RAMP 3) (rat, UniProt P32214 25-516; Q9JJ73 23-147)
T3 construct: whole, on cells; Used as membranes prepared from the transfected cells; also called rAmylin-R; rat amylin 3(a) receptor
T3 sequence (looked up) 1: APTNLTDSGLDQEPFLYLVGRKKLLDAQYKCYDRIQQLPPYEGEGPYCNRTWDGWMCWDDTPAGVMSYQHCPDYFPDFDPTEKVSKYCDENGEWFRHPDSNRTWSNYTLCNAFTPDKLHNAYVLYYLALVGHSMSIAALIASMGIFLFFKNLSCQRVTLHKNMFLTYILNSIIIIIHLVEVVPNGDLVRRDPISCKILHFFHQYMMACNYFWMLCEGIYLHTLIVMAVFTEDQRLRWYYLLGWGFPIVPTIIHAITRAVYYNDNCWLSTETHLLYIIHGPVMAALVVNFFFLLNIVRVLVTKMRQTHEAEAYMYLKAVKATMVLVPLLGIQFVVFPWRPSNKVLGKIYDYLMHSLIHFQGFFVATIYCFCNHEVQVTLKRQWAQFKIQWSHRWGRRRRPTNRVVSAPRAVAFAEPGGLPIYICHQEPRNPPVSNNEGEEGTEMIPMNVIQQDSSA
T3 sequence (looked up) 2: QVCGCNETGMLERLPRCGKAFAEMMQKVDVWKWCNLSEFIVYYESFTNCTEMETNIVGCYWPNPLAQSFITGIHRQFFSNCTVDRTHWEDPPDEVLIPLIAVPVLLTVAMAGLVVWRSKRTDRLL


Legend:
[1] = biological target: T1, human calcitonin receptor; assay: ratio IC50 human calcitonin receptor / IC50 human amylin receptor (Assays VII and V)
In short: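 Competition binding by SPA with cell membranes (35 ng/μL) and SPA beads in 50 mM Hepes pH 7.4 with 1 mM CaCl2, 5 mM MgCl2, 0.1% OA and 0.02% Tween20. Incubated 120 min at 25 °C with shaking, then counted.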

[2] = biological target: T2, rat calcitonin receptor; assay: ratio IC50 rat calcitonin receptor / IC50 rat amylin receptor (Assays VIII and VI)
[3] = biological target: T3, rat amylin receptor (rat calcitonin …); assay: SPA competition with 125I-rat amylin, membranes of BHK cells with rat calcitonin receptor + rat RAMP3 (Assay VI)
[4] = biological target: T2, rat calcitonin receptor; assay: SPA competition with 125I-calcitonin, membranes of BHK cells with rat calcitonin receptor (Assay VIII)

Binder	Ratio hCT/hAmylin binding [1]	Ratio rCT/rAmylin binding [2]	IC50 [3] [nM]	IC50 [4] [nM]
{C20 diacid-γGlu}-KCNTATCATQRLAEFLRHSSPNFGAIPSSTNVGPNTY-NH2 (disulfide 2-7; SMILES CC[C@H](C)[C@H](NC(=O)[C@H](C)NC(=O)CNC(=O)[C@H](Cc1ccccc1)NC(=O)[C@H](CC(N)=O)NC(=O)[C@@H]1CCCN1C(=O)[C@H](CO)NC(=O)[C@H](CO)NC(=O)[C@H](Cc1c[nH]cn1)NC(=O)[C@H](CCCNC(=N)N)NC(=O)[C@H](CC(C)C)NC(=O)[C@H](Cc1ccccc1)NC(=O)[C@H](CCC(=O)O)NC(=O)[C@H](C)NC(=O)[C@H](CC(C)C)NC(=O)[C@H](CCCNC(=N)N)NC(=O)[C@H](CCC(N)=O)NC(=O)[C@@H](NC(=O)[C@H](C)NC(=O)[C@@H]1CSSC[C@H](NC(=O)[C@H](CCCCN)NC(=O)CC[C@H](NC(=O)CCCCCCCCCCCCCCCCCCC(=O)O)C(=O)O)C(=O)N[C@@H](CC(N)=O)C(=O)N[C@@H]([C@@H](C)O)C(=O)N[C@@H](C)C(=O)N[C@@H]([C@@H](C)O)C(=O)N1)[C@@H](C)O)C(=O)N1CCC[C@H]1C(=O)N[C@@H](CO)C(=O)N[C@@H](CO)C(=O)N[C@H](C(=O)N[C@@H](CC(N)=O)C(=O)N[C@H](C(=O)NCC(=O)N1CCC[C@H]1C(=O)N[C@@H](CC(N)=O)C(=O)N[C@H](C(=O)N[C@@H](Cc1ccc(O)cc1)C(N)=O)[C@@H](C)O)C(C)C)[C@@H](C)O, Derivative of human amylin; also called compound 32)	10.9	34	0.176	5.98
{C20 diacid-γGlu}-KCNTATCATQRLAEFLRHSSPNFGAIPSSTNVGSETY-NH2 (disulfide 2-7; SMILES CC[C@H](C)[C@H](NC(=O)[C@H](C)NC(=O)CNC(=O)[C@H](Cc1ccccc1)NC(=O)[C@H](CC(N)=O)NC(=O)[C@@H]1CCCN1C(=O)[C@H](CO)NC(=O)[C@H](CO)NC(=O)[C@H](Cc1c[nH]cn1)NC(=O)[C@H](CCCNC(=N)N)NC(=O)[C@H](CC(C)C)NC(=O)[C@H](Cc1ccccc1)NC(=O)[C@H](CCC(=O)O)NC(=O)[C@H](C)NC(=O)[C@H](CC(C)C)NC(=O)[C@H](CCCNC(=N)N)NC(=O)[C@H](CCC(N)=O)NC(=O)[C@@H](NC(=O)[C@H](C)NC(=O)[C@@H]1CSSC[C@H](NC(=O)[C@H](CCCCN)NC(=O)CC[C@H](NC(=O)CCCCCCCCCCCCCCCCCCC(=O)O)C(=O)O)C(=O)N[C@@H](CC(N)=O)C(=O)N[C@@H]([C@@H](C)O)C(=O)N[C@@H](C)C(=O)N[C@@H]([C@@H](C)O)C(=O)N1)[C@@H](C)O)C(=O)N1CCC[C@H]1C(=O)N[C@@H](CO)C(=O)N[C@@H](CO)C(=O)N[C@H](C(=O)N[C@@H](CC(N)=O)C(=O)N[C@H](C(=O)NCC(=O)N[C@@H](CO)C(=O)N[C@@H](CCC(=O)O)C(=O)N[C@H](C(=O)N[C@@H](Cc1ccc(O)cc1)C(N)=O)[C@@H](C)O)C(C)C)[C@@H](C)O, Derivative of human amylin; also called compound 22)	12.3	28.5	2.19	62.5
K([AEEA-AEEA-γGlu-C20 diacid])CNTATCATQRLANFLRHSSPNFGAIPSSTNVGSETY-NH2 (disulfide 2-7; N-terminus assumed; SMILES CC[C@H](C)[C@H](NC(=O)[C@H](C)NC(=O)CNC(=O)[C@H](Cc1ccccc1)NC(=O)[C@H](CC(N)=O)NC(=O)[C@@H]1CCCN1C(=O)[C@H](CO)NC(=O)[C@H](CO)NC(=O)[C@H](Cc1c[nH]cn1)NC(=O)[C@H](CCCNC(=N)N)NC(=O)[C@H](CC(C)C)NC(=O)[C@H](Cc1ccccc1)NC(=O)[C@H](CC(N)=O)NC(=O)[C@H](C)NC(=O)[C@H](CC(C)C)NC(=O)[C@H](CCCNC(=N)N)NC(=O)[C@H](CCC(N)=O)NC(=O)[C@@H](NC(=O)[C@H](C)NC(=O)[C@@H]1CSSC[C@H](NC(=O)[C@@H](N)CCCCNC(=O)COCCOCCNC(=O)COCCOCCNC(=O)CC[C@H](NC(=O)CCCCCCCCCCCCCCCCCCC(=O)O)C(=O)O)C(=O)N[C@@H](CC(N)=O)C(=O)N[C@@H]([C@@H](C)O)C(=O)N[C@@H](C)C(=O)N[C@@H]([C@@H](C)O)C(=O)N1)[C@@H](C)O)C(=O)N1CCC[C@H]1C(=O)N[C@@H](CO)C(=O)N[C@@H](CO)C(=O)N[C@H](C(=O)N[C@@H](CC(N)=O)C(=O)N[C@H](C(=O)NCC(=O)N[C@@H](CO)C(=O)N[C@@H](CCC(=O)O)C(=O)N[C@H](C(=O)N[C@@H](Cc1ccc(O)cc1)C(N)=O)[C@@H](C)O)C(C)C)[C@@H](C)O, Derivative of human amylin; also called compound 25)	56.5	37.7	3.48	131
{C20 diacid-γGlu}-KCNTATCATQRLAEFLRHSSPNFGAILPSTNVGSETY-NH2 (disulfide 2-7; SMILES CC[C@H](C)[C@H](NC(=O)[C@H](C)NC(=O)CNC(=O)[C@H](Cc1ccccc1)NC(=O)[C@H](CC(N)=O)NC(=O)[C@@H]1CCCN1C(=O)[C@H](CO)NC(=O)[C@H](CO)NC(=O)[C@H](Cc1c[nH]cn1)NC(=O)[C@H](CCCNC(=N)N)NC(=O)[C@H](CC(C)C)NC(=O)[C@H](Cc1ccccc1)NC(=O)[C@H](CCC(=O)O)NC(=O)[C@H](C)NC(=O)[C@H](CC(C)C)NC(=O)[C@H](CCCNC(=N)N)NC(=O)[C@H](CCC(N)=O)NC(=O)[C@@H](NC(=O)[C@H](C)NC(=O)[C@@H]1CSSC[C@H](NC(=O)[C@H](CCCCN)NC(=O)CC[C@H](NC(=O)CCCCCCCCCCCCCCCCCCC(=O)O)C(=O)O)C(=O)N[C@@H](CC(N)=O)C(=O)N[C@@H]([C@@H](C)O)C(=O)N[C@@H](C)C(=O)N[C@@H]([C@@H](C)O)C(=O)N1)[C@@H](C)O)C(=O)N[C@@H](CC(C)C)C(=O)N1CCC[C@H]1C(=O)N[C@@H](CO)C(=O)N[C@H](C(=O)N[C@@H](CC(N)=O)C(=O)N[C@H](C(=O)NCC(=O)N[C@@H](CO)C(=O)N[C@@H](CCC(=O)O)C(=O)N[C@H](C(=O)N[C@@H](Cc1ccc(O)cc1)C(N)=O)[C@@H](C)O)C(C)C)[C@@H](C)O, Derivative of human amylin; also called compound 33)	3.9	12.6	2.29	28.9
{C20 diacid-γGlu}-KCNTATCATQRLAHFLRHSSPNFGAIPSSTNVGSETY-NH2 (disulfide 2-7; SMILES CC[C@H](C)[C@H](NC(=O)[C@H](C)NC(=O)CNC(=O)[C@H](Cc1ccccc1)NC(=O)[C@H](CC(N)=O)NC(=O)[C@@H]1CCCN1C(=O)[C@H](CO)NC(=O)[C@H](CO)NC(=O)[C@H](Cc1c[nH]cn1)NC(=O)[C@H](CCCNC(=N)N)NC(=O)[C@H](CC(C)C)NC(=O)[C@H](Cc1ccccc1)NC(=O)[C@H](Cc1c[nH]cn1)NC(=O)[C@H](C)NC(=O)[C@H](CC(C)C)NC(=O)[C@H](CCCNC(=N)N)NC(=O)[C@H](CCC(N)=O)NC(=O)[C@@H](NC(=O)[C@H](C)NC(=O)[C@@H]1CSSC[C@H](NC(=O)[C@H](CCCCN)NC(=O)CC[C@H](NC(=O)CCCCCCCCCCCCCCCCCCC(=O)O)C(=O)O)C(=O)N[C@@H](CC(N)=O)C(=O)N[C@@H]([C@@H](C)O)C(=O)N[C@@H](C)C(=O)N[C@@H]([C@@H](C)O)C(=O)N1)[C@@H](C)O)C(=O)N1CCC[C@H]1C(=O)N[C@@H](CO)C(=O)N[C@@H](CO)C(=O)N[C@H](C(=O)N[C@@H](CC(N)=O)C(=O)N[C@H](C(=O)NCC(=O)N[C@@H](CO)C(=O)N[C@@H](CCC(=O)O)C(=O)N[C@H](C(=O)N[C@@H](Cc1ccc(O)cc1)C(N)=O)[C@@H](C)O)C(C)C)[C@@H](C)O, Derivative of human amylin; also called compound 30)	23.6	36.1	3.14	114
